T1: mouse FcγRIII (mouse, UniProt P08508 31-215)
T1 construct: Extracellular domain with C-terminal His tag; also called mFcγRIII; mFcgRIII
T1 chain: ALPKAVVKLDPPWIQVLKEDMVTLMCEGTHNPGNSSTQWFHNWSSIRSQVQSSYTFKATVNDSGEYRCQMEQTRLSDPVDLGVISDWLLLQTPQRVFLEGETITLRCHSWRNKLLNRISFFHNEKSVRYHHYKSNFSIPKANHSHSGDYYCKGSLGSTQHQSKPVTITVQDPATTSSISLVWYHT

T2: mouse FcγRII (mouse, UniProt P08101 30-210)
T2 construct: Extracellular domain with C-terminal His tag; also called mFcγRII; mFcgRII
T2 sequence: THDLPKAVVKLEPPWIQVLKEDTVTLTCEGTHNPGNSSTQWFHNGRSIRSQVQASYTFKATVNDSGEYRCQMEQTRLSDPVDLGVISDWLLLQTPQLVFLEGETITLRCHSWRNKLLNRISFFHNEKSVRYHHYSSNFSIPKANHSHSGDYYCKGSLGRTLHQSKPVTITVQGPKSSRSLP


Assays:
[1] = target: T1, mouse FcγRIII; assay: SPR (Biacore T200); KD of H237-mIgG1/MRAL-k0 / KD of variant
Excerpt: (§1) The antibody H chain variable region used was the variable region H237 (SEQ ID NO: 1) of the H chain VH3-IgG1 of the anti-IL-6 receptor antibody Fv4-IgG1 described in WO2009/125825. The antibody L chain commonly used was the L chain MRAL-k0 (SEQ ID NO: 2) of the anti-IL-6 receptor antibody tocilizumab. […] These variants were expressed and purified by the method of Reference Example 1 and evaluated for their binding to mFcγRII and mFcγRIII by the method of Reference Example 2 using Biacore T200.
(§2) Each altered antibody was analyzed for its interaction with each Fcγ receptor prepared above using Biacore T100 (GE Healthcare Japan Corp.), Biacore T200 (GE Healthcare Japan Corp.), Biacore A100, or Biacore 4000. The running buffer used was HBS-EP+ (GE Healthcare Japan Corp.). The assay temperature was set to 25° C. The sensor chips used were chips prepared by immobilizing Protein L (ACTIGEN or BioVision) onto Series S Sensor Chip CM5 (GE Healthcare Japan Corp.) or Series S Sensor Chip CM4 (GE Healthcare Japan Corp.) by the amine coupling method.

[2] = target: T2, mouse FcγRII; assay: as above
Excerpt: as §1, §2

[3] = target: T1, mouse FcγRIII; assay: SPR (Biacore T200); KD of H237-MB630/MRAL-k0 / KD of variant
Excerpt: as §1, §2
(§3) In order to calculate the KD value of each altered antibody for FcγR, kinetic analysis was conducted according to the following method: first, the antibody of interest was captured onto any of these chips and allowed to interact with mFcγR diluted with a running buffer. For the obtained sensorgram, the assay results were globally fit into the 1:1 Langmuir binding model using Biacore Evaluation Software to calculate an association rate constant ka (L/mol/s) and a dissociation rate constant kd (1/s). From these values, the dissociation constant KD (mol/L) was calculated.

[4] = target: T2, mouse FcγRII; assay: as above
Excerpt: as §1, §2, §3

Binder | relative mFcγRIII-binding activity (mIgG1 = 1) [1] [fold] | relative mFcγRII-binding activity (mIgG1 = 1) [2] [fold] | Relative mFcγRIII-binding activity (MB630 = 1) [3] [fold] | Relative mFcγRII-binding activity (MB630 = 1) [4] [fold]
MB772 (antibody, mouse IgG1, kappa, CH name; VH H237 + CH, L chain MRAL-k0; copies: 2 + 2) heavy: QVQLQESGPGLVKPSETLSLTCAVSGHSISHDHAWSWVRQPPGEGLEWIGFISYSGITNYNPSLQGRVTISRDNSKNTLYLQMNSLRAEDTAVYYCARSLARTTAMDYWGEGTLVTVSSAKTTPPSVYPLAPGSAAQTNSMVTLGCLVKGYFPEPVTVTWNSGSLSSGVHTFPAVLQSDLYTLSSSVTVPSSTWPSETVTCNVAHPASSTKVDKKIVPRDCGCKPCICEPNEVELVFIFPPKPKDVLTITLTPKVTCVVVDISKDDPEVQFSWFVDDVEVHTAQTQPREEQFNSTFRSVSELPIMHQDWLNGKEFKCRVNSAAFPAPINKTISKTKGRPKAPQVYTIPPPKEQMAKDKVSLTCMITDFFPEDITVEWQWNGQPAENYKNTQPIMDTDGSYFVYSKLNVQKSNWEAGNTFTCSVLHEGLHNHHTEKSLSHSPGK light: not shown | 0.07 | 3.5 | 0.42 | 0.32
MB776 (antibody, mouse IgG1, kappa, CH name; VH H237 + CH, L chain MRAL-k0; copies: 2 + 2) heavy: QVQLQESGPGLVKPSETLSLTCAVSGHSISHDHAWSWVRQPPGEGLEWIGFISYSGITNYNPSLQGRVTISRDNSKNTLYLQMNSLRAEDTAVYYCARSLARTTAMDYWGEGTLVTVSSAKTTPPSVYPLAPGSAAQTNSMVTLGCLVKGYFPEPVTVTWNSGSLSSGVHTFPAVLQSDLYTLSSSVTVPSSTWPSETVTCNVAHPASSTKVDKKIVPRDCGCKPCICEPNEVELVFIFPPKPKDVLTITLTPKVTCVVVDISKDDPEVQFSWFVDDVEVHTAQTQPREEQFNSTFRSVSELPIMHQDWLNGKEFKCRVNSAAFPAPIEKYISKTKGRPKAPQVYTIPPPKEQMAKDKVSLTCMITDFFPEDITVEWQWNGQPAENYKNTQPIMDTDGSYFVYSKLNVQKSNWEAGNTFTCSVLHEGLHNHHTEKSLSHSPGK light: not shown | 0.2 | 11.3 | 1.15 | 1.04
MB775 (antibody, mouse IgG1, kappa, CH name; VH H237 + CH, L chain MRAL-k0; copies: 2 + 2) heavy: QVQLQESGPGLVKPSETLSLTCAVSGHSISHDHAWSWVRQPPGEGLEWIGFISYSGITNYNPSLQGRVTISRDNSKNTLYLQMNSLRAEDTAVYYCARSLARTTAMDYWGEGTLVTVSSAKTTPPSVYPLAPGSAAQTNSMVTLGCLVKGYFPEPVTVTWNSGSLSSGVHTFPAVLQSDLYTLSSSVTVPSSTWPSETVTCNVAHPASSTKVDKKIVPRDCGCKPCICEPNEVELVFIFPPKPKDVLTITLTPKVTCVVVDISKDDPEVQFSWFVDDVEVHTAQTQPREEQFNSTFRSVSELPIMHQDWLNGKEFKCRVNSAAFPAPIEKNISKTKGRPKAPQVYTIPPPKEQMAKDKVSLTCMITDFFPEDITVEWQWNGQPAENYKNTQPIMDTDGSYFVYSKLNVQKSNWEAGNTFTCSVLHEGLHNHHTEKSLSHSPGK light: not shown | 0.18 | 9.1 | 1.02 | 0.84
MB774 (antibody, mouse IgG1, kappa, CH name; VH H237 + CH, L chain MRAL-k0; copies: 2 + 2) heavy: QVQLQESGPGLVKPSETLSLTCAVSGHSISHDHAWSWVRQPPGEGLEWIGFISYSGITNYNPSLQGRVTISRDNSKNTLYLQMNSLRAEDTAVYYCARSLARTTAMDYWGEGTLVTVSSAKTTPPSVYPLAPGSAAQTNSMVTLGCLVKGYFPEPVTVTWNSGSLSSGVHTFPAVLQSDLYTLSSSVTVPSSTWPSETVTCNVAHPASSTKVDKKIVPRDCGCKPCICEPNEVELVFIFPPKPKDVLTITLTPKVTCVVVDISKDDPEVQFSWFVDDVEVHTAQTQPREEQFNSTFRSVSELPIMHQDWLNGKEFKCRVNSAAFPAPIVKTISKTKGRPKAPQVYTIPPPKEQMAKDKVSLTCMITDFFPEDITVEWQWNGQPAENYKNTQPIMDTDGSYFVYSKLNVQKSNWEAGNTFTCSVLHEGLHNHHTEKSLSHSPGK light: not shown | 0.18 | 9.4 | 1.05 | 0.87
MB773 (antibody, mouse IgG1, kappa, CH name; VH H237 + CH, L chain MRAL-k0; copies: 2 + 2) heavy: QVQLQESGPGLVKPSETLSLTCAVSGHSISHDHAWSWVRQPPGEGLEWIGFISYSGITNYNPSLQGRVTISRDNSKNTLYLQMNSLRAEDTAVYYCARSLARTTAMDYWGEGTLVTVSSAKTTPPSVYPLAPGSAAQTNSMVTLGCLVKGYFPEPVTVTWNSGSLSSGVHTFPAVLQSDLYTLSSSVTVPSSTWPSETVTCNVAHPASSTKVDKKIVPRDCGCKPCICEPNEVELVFIFPPKPKDVLTITLTPKVTCVVVDISKDDPEVQFSWFVDDVEVHTAQTQPREEQFNSTFRSVSELPIMHQDWLNGKEFKCRVNSAAFPAPIYKTISKTKGRPKAPQVYTIPPPKEQMAKDKVSLTCMITDFFPEDITVEWQWNGQPAENYKNTQPIMDTDGSYFVYSKLNVQKSNWEAGNTFTCSVLHEGLHNHHTEKSLSHSPGK light: not shown | 0.22 | 12.7 | 1.25 | 1.17

Now from value to binder:

relative mFcγRIII-binding activity (mIgG1 = 1) [1] [fold] | relative mFcγRII-binding activity (mIgG1 = 1) [2] [fold] | Relative mFcγRIII-binding activity (MB630 = 1) [3] [fold] | Relative mFcγRII-binding activity (MB630 = 1) [4] [fold] | Binder
0.17 | 9.7 | 0.72 | 0.74 | MB777 (antibody, mouse IgG1, kappa, CH name; VH H237 + CH, L chain MRAL-k0; copies: 2 + 2) heavy: QVQLQESGPGLVKPSETLSLTCAVSGHSISHDHAWSWVRQPPGEGLEWIGFISYSGITNYNPSLQGRVTISRDNSKNTLYLQMNSLRAEDTAVYYCARSLARTTAMDYWGEGTLVTVSSAKTTPPSVYPLAPGSAAQTNSMVTLGCLVKGYFPEPVTVTWNSGSLSSGVHTFPAVLQSDLYTLSSSVTVPSSTWPSETVTCNVAHPASSTKVDKKIVPRDCGCKPCICEPNEVELVFIFPPKPKDVLTITLTPKVTCVVVDISKDDPEVQFSWFVDDVEVHTAQTQPREEQFNSTFRSVSELPIMHQDWLNGKEFKCRVNSAAFPAPIEKTIIKTKGRPKAPQVYTIPPPKEQMAKDKVSLTCMITDFFPEDITVEWQWNGQPAENYKNTQPIMDTDGSYFVYSKLNVQKSNWEAGNTFTCSVLHEGLHNHHTEKSLSHSPGK light: not shown
0.18 | 10 | 1.02 | 0.92 | MB779 (antibody, mouse IgG1, kappa, CH name; VH H237 + CH, L chain MRAL-k0; copies: 2 + 2) heavy: QVQLQESGPGLVKPSETLSLTCAVSGHSISHDHAWSWVRQPPGEGLEWIGFISYSGITNYNPSLQGRVTISRDNSKNTLYLQMNSLRAEDTAVYYCARSLARTTAMDYWGEGTLVTVSSAKTTPPSVYPLAPGSAAQTNSMVTLGCLVKGYFPEPVTVTWNSGSLSSGVHTFPAVLQSDLYTLSSSVTVPSSTWPSETVTCNVAHPASSTKVDKKIVPRDCGCKPCICEPNEVELVFIFPPKPKDVLTITLTPKVTCVVVDISKDDPEVQFSWFVDDVEVHTAQTQPREEQFNSTFRSVSELPIMHQDWLNGKEFKCRVNSAAFPAPIEKTIWKTKGRPKAPQVYTIPPPKEQMAKDKVSLTCMITDFFPEDITVEWQWNGQPAENYKNTQPIMDTDGSYFVYSKLNVQKSNWEAGNTFTCSVLHEGLHNHHTEKSLSHSPGK light: not shown
0.11 | 6.1 | 0.65 | 0.57 | MB778 (antibody, mouse IgG1, kappa, CH name; VH H237 + CH, L chain MRAL-k0; copies: 2 + 2) heavy: QVQLQESGPGLVKPSETLSLTCAVSGHSISHDHAWSWVRQPPGEGLEWIGFISYSGITNYNPSLQGRVTISRDNSKNTLYLQMNSLRAEDTAVYYCARSLARTTAMDYWGEGTLVTVSSAKTTPPSVYPLAPGSAAQTNSMVTLGCLVKGYFPEPVTVTWNSGSLSSGVHTFPAVLQSDLYTLSSSVTVPSSTWPSETVTCNVAHPASSTKVDKKIVPRDCGCKPCICEPNEVELVFIFPPKPKDVLTITLTPKVTCVVVDISKDDPEVQFSWFVDDVEVHTAQTQPREEQFNSTFRSVSELPIMHQDWLNGKEFKCRVNSAAFPAPIEKTIKKTKGRPKAPQVYTIPPPKEQMAKDKVSLTCMITDFFPEDITVEWQWNGQPAENYKNTQPIMDTDGSYFVYSKLNVQKSNWEAGNTFTCSVLHEGLHNHHTEKSLSHSPGK light: not shown

Source: patent publication US20150203577A1 (Chugai, published 2015)
